# Source: the supplement of paper PMC12338614
# ± gives the uncertainty stated by the source.
# B1: library; numbered along this chain (parent)
# chain: MEVVDPQQLGMFTEGELMSVGMDTFIHRIDSTEVIYQPRRKRAKLIGKYLMGDLLGEGSYGKVKEVLDSETLCRRAVKILKKKKLRRIPNGEANVKKEIQLLRRLRHKNVIQLVDVLYNEEKQKMYMVMEYCVCGMQEMLDSVPEKRFPVCQAHGYFCQLIDGLEYLHSQGIVHKDIKPGNLLLTTGGTLKISDLGVAEALHPFAADDTCRTSQGSPAFQPPEIANGLDTFSGFKVDIWSAGVTLYNITTGLYPFEGDNIYKLFENIGKGSYAIPGDCGPPLSDLLKGMLEYEPAKRFSIRQIRQHSWFRKKHPPAEAPVPIPPSPDTKDRWRSMTVVPYLEDLHGADEDEDLFDIEDDIIYTQDFTVPGQVPEEEASHNGQRRGLPKAVCMNGTEAAQLSTKSRAEGRAPNPARKACSASSKIRRLSACKQQ
# Variants of: B1
# Test: STK11 functional score (HeLa growth suppression), rescaled enrichment; synonymous median = 1, nonsense median = 0 (normalised score)
# Conditions: with HeLa; variant type: missense
# Outline: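 Functional scores are post/pre-selection log ratios corrected to wild type, rescaled to synonymous and nonsense medians, merged over codons and replicate transfections, and given bootstrapped error. They come from POPCode libraries of codon-optimised STK11 integrated by Bxb1 at an AAVS1 landing pad in HeLa, three regions each transfected three times, with BFP-negative, mCherry-positive integrants sorted by FACS and tiled gDNA amplicons sequenced on NextSeq.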
row,Variant,STK11 functional score
1,MEVVDPQQLGMFTEGELMSVGMDTFIHRIDSTEVIYQPRRKRAKLIGKYLMGDLLGEGSYGKVKEVLDSETLCRRAVKILKKKKLRRIPNGEANVKKEIQPLRRLRHKNVIQLVDVLYNEEKQKMYMVMEYCVCGMQEMLDSVPEKRFPVCQAHGYFCQLIDGLEYLHSQGIVHKDIKPGNLLLTTGGTLKISDLGVAEALHPFAADDTCRTSQGSPAFQPPEIANGLDTFSGFKVDIWSAGVTLYNITTGLYPFEGDNIYKLFENIGKGSYAIPGDCGPPLSDLLKGMLEYEPAKRFSIRQIRQHSWFRKKHPPAEAPVPIPPSPDTKDRWRSMTVVPYLEDLHGADEDEDLFDIEDDIIYTQDFTVPGQVPEEEASHNGQRRGLPKAVCMNGTEAAQLSTKSRAEGRAPNPARKACSASSKIRRLSACKQQ [L101P],0.045 ± 0.083
2,MEVVDPQQLGMFTEGELMSVGMDTFIHRIDSTEVIYQPRRKRAKLIGKYLMGDLLGEGSYGKVKEVLDSETLCRRAVKILKKKKLRRIPNGEANVKKEIQLLRRLRHKNVIQLVDVLYNEEKQKMYMVMEYCVCGMQEMLDSVPEKRFPVCQAHGYFCQLIDGLEYLHSQGIVHKDIKPGNLLLTTGGTLKISDLGVAEALHPFAADDTCRTSQGSPAFQPPEIANGLDTFSGFKVDIWSAGVTLYNITTGLYPFEGDNIYKLFENIGKGSYAIPGDCGPPLSDLLKGMLEYEPAKRFSIRQIRQHSWFRKKHPPAEAPVPIPPSPDTKDRWRSMTVVPYLEDLHGHDEDEDLFDIEDDIIYTQDFTVPGQVPEEEASHNGQRRGLPKAVCMNGTEAAQLSTKSRAEGRAPNPARKACSASSKIRRLSACKQQ [A347H],0.00438 ± 0.16
3,MEVVDPQQLGMFTEGELMSVGMDTFIHRIDSTEVIYQPRRKRAKLIGKYLMGDLLGEGSYGKVKEVLDSETLCRRAVKILKKKKLRRIPNGEANVKKEIQLLRRLRHKNVIQLVDVLYNEEKQKMYMVMEYCVCGMQEMLDSVPEKRFPVCQAHGYFCQLIDGLEYLHSQGIVHKDIKPGNLLLTTGGTLKISDLGVAEALHPFAADDTCRTSQGSPAFQPPEIANGLDTFSGFKVDIWSAGVTLYPITTGLYPFEGDNIYKLFENIGKGSYAIPGDCGPPLSDLLKGMLEYEPAKRFSIRQIRQHSWFRKKHPPAEAPVPIPPSPDTKDRWRSMTVVPYLEDLHGADEDEDLFDIEDDIIYTQDFTVPGQVPEEEASHNGQRRGLPKAVCMNGTEAAQLSTKSRAEGRAPNPARKACSASSKIRRLSACKQQ [N247P],-0.0537 ± 0.096
4,MEVVDPQQLGMFTEGELMSVGMDTFIHRIDSTEVIYQPRRKRAKLIGKYLMGDLLGEGSYGKVKEVLDSETLCRRAVKILKKKKLRRIPNGEANVKKEIQLLRRLRHKNVIQLVDVLYNEEKQKMYMVMEYCVCGMQEMLDSVPEKRFPVCQAHGYFCQLIDGLEYLHSQGIVHKDIKPGNLLLTTGGTLKISDLGVAEALHPFAADDTCRTSQGSPAFQPPEIANGLDTFSGFKVDIWSAGVTLYNITTGLYPFEGDNIYKLFENIGKGSYAIPGDCGPPLSDALKGMLEYEPAKRFSIRQIRQHSWFRKKHPPAEAPVPIPPSPDTKDRWRSMTVVPYLEDLHGADEDEDLFDIEDDIIYTQDFTVPGQVPEEEASHNGQRRGLPKAVCMNGTEAAQLSTKSRAEGRAPNPARKACSASSKIRRLSACKQQ [L285A],-0.0789 ± 0.071
5,MEVVDPQQLGMFTEGELMSVGMDTFIHRIDSTEVIYQPRRKRAKLIGKYLMGDLLGEGSYGKVKEVLDSETLCRRAVKILKKKKLRRIPNGEANVKKEIQLLRRLRHKNVIQLVDVLYNEEKQKMYMVMEYCVCGMQEMLDSVPEKRFPVCQAHGYFCQLIDGLEYLHSQGIVHKDIKPGNLLLTTGGTLKISDLGVAEALHPFAADDTCRTSQGSPAFQPPEIANGLDTFSGFKVDIWSAGVTLYNITTGLYPFEGDNIYKLFENIGKGSYAIKGDCGPPLSDLLKGMLEYEPAKRFSIRQIRQHSWFRKKHPPAEAPVPIPPSPDTKDRWRSMTVVPYLEDLHGADEDEDLFDIEDDIIYTQDFTVPGQVPEEEASHNGQRRGLPKAVCMNGTEAAQLSTKSRAEGRAPNPARKACSASSKIRRLSACKQQ [P275K],1.45 ± 0.32
6,MEVVDPQQLGMFTEGELMSVGMDTFIHRIDSTEVIYQPRRKRAKLIGKYLMGDLLGEGSYGKVKEVLDSETLCRRAVKILKKKKLRRIPNGEANVKKEIQLLRRLRHKNVIQLVDVLYNEEKQKMYMVMEYCVCGMQEMLDSVPEKRFPVCQAHGYFCQLIDGLEYLHSQGIVHKDISPGNLLLTTGGTLKISDLGVAEALHPFAADDTCRTSQGSPAFQPPEIANGLDTFSGFKVDIWSAGVTLYNITTGLYPFEGDNIYKLFENIGKGSYAIPGDCGPPLSDLLKGMLEYEPAKRFSIRQIRQHSWFRKKHPPAEAPVPIPPSPDTKDRWRSMTVVPYLEDLHGADEDEDLFDIEDDIIYTQDFTVPGQVPEEEASHNGQRRGLPKAVCMNGTEAAQLSTKSRAEGRAPNPARKACSASSKIRRLSACKQQ [K178S],0.586 ± 0.12
7,MEVVDPQQLGMFTEGELMSVGMDTFIHRIDSTEVIYQPRRKRAKLIGKYLMGDLLGEGSYGKVKEVLDSETLCRRAVKILKKKKLRRIPNGEANVKKEIQLLRRLRHKNVIQLVDVLYNEEKQKMYMVMEYCVCGMQEMLDSVPEKRFPVCQAHGYFCQLIDGLMYLHSQGIVHKDIKPGNLLLTTGGTLKISDLGVAEALHPFAADDTCRTSQGSPAFQPPEIANGLDTFSGFKVDIWSAGVTLYNITTGLYPFEGDNIYKLFENIGKGSYAIPGDCGPPLSDLLKGMLEYEPAKRFSIRQIRQHSWFRKKHPPAEAPVPIPPSPDTKDRWRSMTVVPYLEDLHGADEDEDLFDIEDDIIYTQDFTVPGQVPEEEASHNGQRRGLPKAVCMNGTEAAQLSTKSRAEGRAPNPARKACSASSKIRRLSACKQQ [E165M],0.0982 ± 0.39
8,MEVVDPQQLGMFTEGELMSVGMDTFIHRIDSTEVIYQPRRKRAKLIGKYLMGDLLGEGSYGKVKEVLDSETLCRRAVKILKKKKLRRIPNGEANVKKEIQLLRRLRHKNVIQLVDVLYNEEKQKMYMVMEYCVCGMQEMLDSVPEKRFPVCQAHGYFCQLIDGLEYLHSQGIVHKDIKPGNLLLTTGGTLKISDLGVAEALHPFAADDTCRTSQGSPAFQPPEIANGLDTFSGFKVDIWSAGVTLYNITTGLYPFEGDNIYKLFENIGKGSYAIPGDCGPPLSDLLKGMLEYEPAKRFSIRQIRQHSWFRKKHPPAEAPVPIPPSPDTKDRWRSMTVVPYLWDLHGADEDEDLFDIEDDIIYTQDFTVPGQVPEEEASHNGQRRGLPKAVCMNGTEAAQLSTKSRAEGRAPNPARKACSASSKIRRLSACKQQ [E342W],1.19 ± 0.28
9,MEVVDPQQLGMFTEGELMSVGMDTFIHRIDSTEVIYQPRRKRAKLIGKYLMGDLLGEGSYGKVKEVLDSETLCRRAVKILKKKKLRRIPNGEANVKKEIQLLRRLRHKNVIQLVDVLYNEEKQKMYMVMEYCVCGMQEMLDSVPEKRFPVCQAHGYFCQLIDGLEYLHSQGIVHKDIKPGNLLLTTGGTLKISDLGVAEALHPFAADDTCRTSQGSPAFQPPEIANGLDTFSGFKVDIWSAGVTLYNITTGLYPFEGDNIYKLFENIGKGSYAIPGDCGPPLSDLLKGMLEYEPAKRFSIRQIRQHSWFRKKHPPAEAPVPIPPSPSTKDRWRSMTVVPYLEDLHGADEDEDLFDIEDDIIYTQDFTVPGQVPEEEASHNGQRRGLPKAVCMNGTEAAQLSTKSRAEGRAPNPARKACSASSKIRRLSACKQQ [D327S],1.58 ± 0.26
10,MEVVDPQQLGMFTEGELMSVGMDTFIHRIDSTEVIYQPRRKRAKLIGKYLMGDLLGEGSYGKVKEVLDSETLCRRAVKILKKKKLRRIPNGEANVKKEIQLLRRLRHKNVIQLVDVLYNEEKQKMYMVMEYCVCGMQEMLDSVPEKRFPVCQAHGYFCQLIDGLEYLHSQGIVHKDIKPGNLLLTTGGTLKISDLGVAEALHPFAADDTCRTSQGSPAFQPPEIANGLDTFSGFKVDIWSAGVTLYNITTGLYPFEGDNIYKLFENIGKGSYAIPGDCGPPLSDLLKGMLEYEPAKRFSIRQIRQHSWFRKSHPPAEAPVPIPPSPDTKDRWRSMTVVPYLEDLHGADEDEDLFDIEDDIIYTQDFTVPGQVPEEEASHNGQRRGLPKAVCMNGTEAAQLSTKSRAEGRAPNPARKACSASSKIRRLSACKQQ [K312S],1.29 ± 0.3
11,MEVVDPQQLGMFTEGELMSVGMDTFIHRIDSTEVIYQPRRKRAKLIGKYLMGDLLGEGSYGKVKEVLDSETLCRRAVKILKKKKLRRIPNGEANVKKEIQLLRRLRHKNVIQLVDVLYNEEKQKMYMVMEYCVCGMQEMLDSVPEKRFPVCQAHGYFCQLIDGLEYLHSQGIVHKDIKPGNLLLTTGGTLKISDLGVAEALHPFAADDTCRTSQGSPAFQPPEIANGLDTFSGFKVDIWSAGVTLYNITTGLYPFEGDNIYKWFENIGKGSYAIPGDCGPPLSDLLKGMLEYEPAKRFSIRQIRQHSWFRKKHPPAEAPVPIPPSPDTKDRWRSMTVVPYLEDLHGADEDEDLFDIEDDIIYTQDFTVPGQVPEEEASHNGQRRGLPKAVCMNGTEAAQLSTKSRAEGRAPNPARKACSASSKIRRLSACKQQ [L263W],-0.0482 ± 0.1
12,MEVVDPQQLGMFTEGELMSVGMDTFIHRIDSTEVIYQPRRKRAKLIGKYLMGDLLGEGSYGKVKEVLDSETLCRRAVKILKKKKLRRIPNGEANVKKEIQLLRRLRHKNVIQLVDVLYNEEKQKMYMVMEYCVCGMQEMLDSVPEKRFPVCQAHGYFCQLIDGLEYLHSQGIVHKDIKPGNLLLTTGGTLKISDLGVAEALHPFAADDTCRTSQGSPAFQPPEIANGLDTFSGFKVDIWSAGVTLYNITTGLYPFEGDNIYKLFENIGKGSYAIPGDCGPPLSDLLKGMLEYEPAKRFSIRQIRQHSWFRKKHPPAEAPVPIPPSPDTKDRWRSMTVVPYLEDLHGADEDEDLFDIEDDIIYTQDFTVPGQVPEEEASHNAQRRGLPKAVCMNGTEAAQLSTKSRAEGRAPNPARKACSASSKIRRLSACKQQ [G381A],1.09 ± 0.4
13,MEVVDPQQLGMFTEGELMSVGMDTFIHRIDSTEVIYQPRRKRAKLIGKYLMGDLLGEGSYGKVKEVLDSETLCRRAVKILKKKKLRRIPNGEANVKKEIQLLRRLRHKNVIQLVDVLYNEEKQKMYMVMEYCVCGMQEMLDSVPEERFPVCQAHGYFCQLIDGLEYLHSQGIVHKDIKPGNLLLTTGGTLKISDLGVAEALHPFAADDTCRTSQGSPAFQPPEIANGLDTFSGFKVDIWSAGVTLYNITTGLYPFEGDNIYKLFENIGKGSYAIPGDCGPPLSDLLKGMLEYEPAKRFSIRQIRQHSWFRKKHPPAEAPVPIPPSPDTKDRWRSMTVVPYLEDLHGADEDEDLFDIEDDIIYTQDFTVPGQVPEEEASHNGQRRGLPKAVCMNGTEAAQLSTKSRAEGRAPNPARKACSASSKIRRLSACKQQ [K146E],1.14 ± 0.31
14,MEVVDPQQLGMFTEGELMSVGMDTFIHRIDSTEVIYQPRRKRAKLIGKYLMGDLLGEGSYGKVKEVLDSETLCRRAVKILKKKKLRRIPNGEANVKKEIQLLRRLRHKNVIQLVDVLYNEEKQKMYMVMEYCVCGMQEMLDSVPEKRFPVCQAHGYFCQLIDGLEYLHSQGIVHKDIKPGNLLLTTGGTLKISDLGVAEALHPFAADDTCRTSQGSPAFQPPEIANGLDTFSGFKVDIWSAGVTLYNITTGLYPFEGDNIYKLFENIGKGSYAIPGDCGPPLSDLLKGMLEYEPAKRFSIRQIRQHSWFRKKHPPAEAPVPIPPSPDTKDRWRSMTVVPYLEDLHGADEDEDLFDIEDCIIYTQDFTVPGQVPEEEASHNGQRRGLPKAVCMNGTEAAQLSTKSRAEGRAPNPARKACSASSKIRRLSACKQQ [D359C],1.14 ± 0.33
